For 1 substance, koff results are on record in article PMC7113277.

This assay has as its target recombinant EBV LMP2A N-terminal cytoplasmic domain (LMP2A-NCD), His6-tagged (Epstein-Barr virus) (UniProt P13285). The assay can be described thus: SPR; BIAcore T200; LMP2A-NCD immobilised on Sensor Chip CM5; affibodies flowed at 2.5-20 μM; global fit, one-to-one Langmuir binding model. Background: SPR reads the build-up and loss of mass on a sensor chip optically.
Sequence of UniProt P13285 (P13285 1-119): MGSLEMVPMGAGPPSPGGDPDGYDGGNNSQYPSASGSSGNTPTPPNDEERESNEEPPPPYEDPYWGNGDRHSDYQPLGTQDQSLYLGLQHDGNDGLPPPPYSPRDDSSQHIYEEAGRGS

In general, koff refers to a measure of how fast the partners let go of each other. With “ZWT affibody (wild SPA-Z scaffold) (designed binder)”, the koff amounted to 5.96e-05 s⁻¹.
